Experimental data taken from the RNAGym collection of RNA variant scans (doi:10.1073/pnas.2313332121).
Fewer inactive variants are shown than the library holds.

B1: TPR 5TU (parent)
chain: GGAUCUUCUCGAUCUAACAAAAAAGACAAAUCUGCCACAAAGCUUGAGAGCAUCUUCGGAUGCAGAGGCGGCAGCCUUCGGUGGCGCGAUAGCGCCAACGUUCUCAACUAUGACACGCAAAACGCGUGCUCCGUUGAAUGGAGUUUAUCAUG

Variants of: B1
Assay: polymerase ribozyme fitness, log enrichment relative to wild type (log ratio); higher = more active; in vitro selection for triplet polymerase activity
Outline: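 Both subunits of a heterodimeric triplet polymerase ribozyme were given their own mutant library, built by PCR and transcribed. Each library was annealed with a biotinylated primer, the partner subunit and triplets, incubated frozen at −7 °C, and its extended constructs gel-excised, captured on streptavidin beads and amplified by RT-PCR, all in one round done in triplicate. Fitness is the logarithm of genotype enrichment relative to wild-type enrichment, with replicates averaged by inverse-variance weighting. That logarithm is base 2, and Illumina-sequenced genotypes needed ≥10 input reads and ≥1 read per output.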

Point of comparison: A17U C51U C95U C103A, “polymerase ribozyme fitness (log ratio)” value -1.47. Against it:
- A17G A20U G42C A49C A52U U148A — lower, ≤ -4.2
- A16C G50A C96A — lower, -3.37
- A17C A19C U55A G94A — higher, 1.05
- U15G G92U — higher, -0.561
- A17G G42U C51U C96U C108U — lower, ≤ -4.2
- A16C A21C U61A — within 0.2 log units, -1.52
- A17U G62U C85U G141U — higher, -0.389
- A16C A21U C76U C105U — lower, -1.77
- A17C G62A C85A — lower, -1.77
- A17U U31A C57U C76U C96G C103G U146C — lower, ≤ -4.2
- A17C C18A U33A G80C C87A C108A G152C — lower, ≤ -4.2
- A17G A23U C79G — lower, ≤ -4.2
- A17C C54A C87A C114U — lower, ≤ -4.2
- A16G C27G A30U U61A A97U G128U — lower, ≤ -4.2
- A17U A39C G80A G86U G117U U144C U148G — lower, ≤ -4.2
- A16U C75U G86A — lower, -2.59
- A16G G48A C57G G58A A60C G88A C114A G141A — lower, ≤ -4.2
- A16U A22U A37G C72U — lower, -3.87
- A17G C36G G83C C99U U104G C125U U145C A147C — lower, ≤ -4.2
- A17U C54U G84A — higher, -0.832
- A17U A40U A113C A115C C131U — lower, ≤ -4.2
- A16G C93A — lower, -2.12
- A17U A24U — higher, 0.106
- A16U A26G U53C G84C C87A G128C G141A — lower, ≤ -4.2
- C18A — higher, -0.302
- A17C U33A A73U C96U G128A G140A U146G — lower, -3.99
- A17G C32U C35G G62C C75A — lower, ≤ -4.2
- A16G A20C A22C C32G A66G C118G G126A C132A — lower, ≤ -4.2
- A17G G62U C87U A122G U127G C132G — lower, ≤ -4.2
- A17C G25C A30G U45A A49C G124U — lower, -4.16
- A16G U56C C76A — higher, -0.363
- A17U A26U A47C A49C G83C C85G — lower, ≤ -4.2
- A16G U53A — lower, -1.79
- A16C U31A — higher, -0.733
- A17U G50A G67U G74A U134G — lower, ≤ -4.2
- C18A A20U A47G A52C G65A G83U U101C G136U — lower, ≤ -4.2
- A16G A17C A41U U55A C76U C85A — lower, ≤ -4.2
- A16C A40C G80A G92U A113G U135C G140A — lower, ≤ -4.2
- A17C A28U G88C U144C — lower, -4.01
- A16G G25A U45C U53A A91C C103G C108U C125U — lower, ≤ -4.2
- A17C A64C G83U — lower, ≤ -4.2
- A16U C116A G136A G140C — lower, ≤ -4.2
- A17U G42C G59A C69U C96G G141A U146C — lower, ≤ -4.2
- A17C A73G C76G U82C C85G — lower, ≤ -4.2
- A16U C57G U77A G88U — lower, ≤ -4.2
- A17U A22U C35U C51U G83U — lower, -1.87
- A16C C27G A49G G50A A60C C79A A91U C105G — lower, ≤ -4.2
- U15G C103G U151G — lower, ≤ -4.2
- A17G C57U C69A G100A — lower, ≤ -4.2
- A16G C96A — higher, -0.881
- A17G U134A — lower, -2.69
- A17U A23C A37C A41C C96A G124U — lower, ≤ -4.2
- A17G C93G C108G — lower, -4.11
- A16U A17C A24G A49G C76A C87A C99G — lower, ≤ -4.2
- A17C U53A A73U C76A C85G C108A U146A — lower, ≤ -4.2
- A17C A120G — higher, 0.31
- A16C A19U C57G A73U A91U G140A U145A — lower, ≤ -4.2
- A17C U56A — higher, 0.36
- A17U G126A — higher, 0.557
- A17U C38U C95U A115C A142U — lower, -3.52
- A16U G50A G92U A98G C132G A142U — lower, ≤ -4.2
- A17U A30C C35A U55G U109A — lower, -4.11
- U15G U31A U55A C93G — lower, -2.44
- A17G A47C U130A — lower, -4.1
- A16U C36U C51A G92A — lower, ≤ -4.2
- A16U A41U — lower, -2.64
- A17G A21C G46C G58U U135G — lower, -4.12
- A16U C54G C87A A98U — lower, ≤ -4.2
- U15G C57A A98U U102A A120U A122U — lower, -1.85
- A17G C75A C87A A91C A115U G140U — lower, ≤ -4.2
- U15G C57U G58C C76A — higher, -0.888
- A16G A21U A97G — lower, -1.74
- A17U A28G G34C A64C C79G U90G — lower, ≤ -4.2
- A16C A24U C57U — lower, -2.44
- A17G A60G U61A A110G C118U C129A — lower, ≤ -4.2
- A17C A39G U44G C63A A73G A113G A121U G141A — lower, ≤ -4.2
- A17C C54U A73U G94U A106G — lower, -2.62
- A16U A19U A20U A40U G86U C96U — lower, ≤ -4.2
- A17U A37U C96A C99U A113C U134G G152C — lower, -4.19
- A16C A26G G86U — lower, ≤ -4.2
- A16U A20U C54U G58C G59A C93U C114U U148A — lower, ≤ -4.2
- A17U A28G G86C A106C C116A A119U — lower, ≤ -4.2
- A17G A20U A52C A89G C95A A106U U134A — lower, ≤ -4.2
- A16U U61G U77C C85A G92C U144A — lower, ≤ -4.2
- A17G C27U A41U — within 0.2 log units, -1.51
- A17G C54G C93G A106G G126U G141U U144C — lower, ≤ -4.2
- U15G G50U C93A G143A — lower, -3.35
- A16C A22C U82G C85U A98C G136U — lower, ≤ -4.2
- A16G A26U C51U A52C C87U — lower, ≤ -4.2
- A17G U31A — higher, 0.512
- A17U A20G C63G U134G — lower, -3.43
- A16C C87U C118U — lower, -2.27
- A16U A37C A52G G84A G140C — lower, ≤ -4.2
- A17G G84U — lower, -2
- A16C C54U C85A — lower, -3.31
- A16C A21U G59A G94A A98G — lower, -2.66
- A17C C116G A138G U144A — lower, ≤ -4.2
- A16G U33G A39C G58U U151G — lower, ≤ -4.2
- A17C C85U A120G G124U G143C — lower, -3.22
- A16C C96G G140U — lower, ≤ -4.2
- A17C C51A C93U A115U — lower, -2.93
- A16U A20C U31G G42C C87G G88C — lower, ≤ -4.2
- A16U A20G A37C C95G U102G A113U — lower, ≤ -4.2
- A17C G25C G62U — lower, -3.17
- A16C A22C C54U A113U — lower, -4.06
- A16U A41C G42A G65A A66G C87A U90G — lower, ≤ -4.2
- A16G G46A A73G G88U G94A C114G — lower, ≤ -4.2
- A16G U44A A73G C87U C93U — lower, ≤ -4.2
- A17U A23U A28G U55A G84A — lower, ≤ -4.2
- A16G C35A C87G U109C G126C C149G — lower, ≤ -4.2
- U15G G59A G88A C132U — lower, ≤ -4.2
- A17U A24C C32A G100A — lower, ≤ -4.2
- A17C G94A A121U U145A U148C — lower, -1.99
- A16G C85G G86U A89C A107G — lower, ≤ -4.2
- A16G A37U G92U — lower, -2.9
- A16U U31G G50A G58A C85U U104G A106U U134A — lower, ≤ -4.2
- A16U G48U G86C C87A A97U C123U U148G — lower, ≤ -4.2
- A16U C32A C35G C96A G124C U144C — lower, ≤ -4.2
- A16U C54A A60C A73C G86A A89C A119G G126U — lower, ≤ -4.2
- A16C C35G A66C G71A U82C C87A — lower, ≤ -4.2
- A17C C38A G94A — higher, 0.661
- A16C A22U A26C A41U A52G C57U G58C G68U A91C C95G U139C G140A — lower, ≤ -4.2
- A17U A22U A26G C36G G67C C95A — lower, ≤ -4.2
- A17U A40U A52G G59A C99G U135C A138G — lower, ≤ -4.2
- A16G G48C A52G — higher, -1.13
- U15G G81A C118A A119C G133A A138U — lower, ≤ -4.2
- A17C C27U C85U G86U C123U G141A — lower, -3.85
- A17G A60G G84U C118A U146G — lower, -2.3
- A16G C99U — within 0.2 log units, -1.33
- A17G C76A A119U — higher, -0.0837
- A17U A49G G86U — lower, -1.95
- A16U G83C C129G A137C U145C — lower, ≤ -4.2
- A17U A24U A52G C57U C96G G140A — lower, ≤ -4.2
- A16U C93A — lower, -3.85
- U15G G59C A73G C85A — lower, -2.7
- A17C C85A — lower, -2.22
- A17G A30U G83A U101C G128U — lower, ≤ -4.2
- A17U A60C G88C — lower, ≤ -4.2
- A17C C96U A107C — lower, -3.77
- A17C C35U G92A A122G — lower, -2.61
- A17U U53A — higher, -0.974
- U15G U53A C95A — within 0.2 log units, -1.48
- A16G — higher, -0.642
- A16U — within 0.2 log units, -1.62
- A16C — higher, -1.01
- A16C A52U — lower, -2.03
- A17U C85U — lower, -1.68
- A17G C63U G88C — lower, ≤ -4.2
- A17U C35U A66C C72U G80A C93A — lower, ≤ -4.2
- A17G A39U G94U G141A — lower, -4.08
- A16U G46C U61A G67C G83C A142C — lower, ≤ -4.2
- A16G C38A C76A C85U U134A — lower, -4
- U15G U148A — lower, -2.78
- A17C U33G G71A C85U G88U U111C A142G U146C — lower, ≤ -4.2
- A16C U135A — lower, -2.12
- A16C A30U G58U A66U A73G — lower, ≤ -4.2
- A17C A24U G48C A89G C93G G128U — lower, ≤ -4.2
- U15G U135G — lower, -3.65
- A16U C87U A89U G140U G143A — lower, ≤ -4.2
- A17U C18U A22C — within 0.2 log units, -1.32
- A16U C93U C116U G117U A121G — lower, -2.05
- A17U A24U U56G — higher, -0.773
- A17C C105U — higher, 1.03
- A16U U53A C57A C95A — lower, -2.57
- A17U C18U G94C A115U — lower, -3.41
- A16U A19C C85U — lower, -2.05
